Experimental data: patent US20030180744, “High affinity oligonucleotide ligands to growth factors” (GILEAD SCIENCES, INC., published 2003)

T1: KGF (hKGF) (Homo sapiens, UniProt P21781 P21781:32-194)
T1 sequence: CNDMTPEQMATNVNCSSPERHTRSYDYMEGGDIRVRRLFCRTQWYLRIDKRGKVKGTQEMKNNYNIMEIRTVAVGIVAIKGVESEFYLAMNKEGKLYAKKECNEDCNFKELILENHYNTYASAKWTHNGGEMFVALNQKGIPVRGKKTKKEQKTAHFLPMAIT

B1: 10N (ssRNA)
RNA: GGGAGGACGAUGCGGUAGCUGCUGUCAUGCAAGACACUAGAAGAUUAAGAUGGGGCAGACGACUCGCCCGA
modifications: 2'-NH2 pyrimidines
B2: 58F (ssRNA)
RNA: GGGAGGACGAUGCGGGAACUAAUGGCCGUGAUUAACCAAUGCAGGCUUCCUGCGCCAGACGACUCGCCCGA
modifications: 2'-F pyrimidines
B3: 28N (ssRNA)
RNA: GGGAGGACGAUGCGGUUGCUCUACAAUGACGCGGUGACUCCGCAGUUCUUGGACACAGACGACUCGCCCGA
modifications: 2'-NH2 pyrimidines
B4: 23F (ssRNA)
RNA: GGGAGGACGAUGCGGCCCUACCACUUUUUCCCUCUACUGUUAUCCUGUCCCCCAGACGACUCGCCCGA
modifications: 2'-F pyrimidines
B5: 11N (ssRNA)
RNA: GGGAGGACGAUGCGGGGGCCGGAUUUGAACCGACGACUUCGGGUUAUGAGCCCGACGUCAGACGACUCGCCCGA
modifications: 2'-NH2 pyrimidines
B6: 11F (ssRNA)
RNA: GGGAGGACGAUGCGGUGAUGGCGACCAGUCAAACCGGUGCUUUUACUCCCCCGCCAGACGACUCGCCCGA
modifications: 2'-F pyrimidines
B7: 35N (ssRNA)
RNA: GGGAGGACGAUGCGGGCUUAGGGAAAUGGUUCUGAGGUGGUCAGACGACUCGCCCGA
modifications: 2'-NH2 pyrimidines
B8: 72N (ssRNA)
RNA: GGGAGGACGAUGCGGGAGGGGAAAAUGAGACCGACAGAUUGACGGAAGUACUGGGCAGACGACUCGCCCGA
modifications: 2'-NH2 pyrimidines
B9: 25N (ssRNA)
RNA: GGGAGGACGAUGCGGGAGGGAAUGAGGAAACAACUAGCAGAUAACCGAGCUGGCCAGACGACUCGCCCGA
modifications: 2'-NH2 pyrimidines
B10: 3F (ssRNA)
RNA: GGGAGGACGAUGCGGAUCGUAAUCGCCACUACUACUUUCCGAACCCGCACGUGGCCAGACGACUCGCCCGA
modifications: 2'-F pyrimidines
B11: 5F (ssRNA)
RNA: GGGAGGACGAUGCGGCGUCCCGAGUCACGCUGUCCUGAUAACCUUCUCUGUGCCCAGACGACUCGCCCGA
modifications: 2'-F pyrimidines
B12: 24N (ssRNA)
RNA: GGGAGGACGAUGCGGGUGGGAAGAUGAGCCGGUCGGCAGUAAUGUGACACUGCGGCAGACGACUCGCCCGA
modifications: 2'-NH2 pyrimidines
B13: 54F (ssRNA)
RNA: GGGAGGACGAUGCGGAAGAUCUCCCAACUGCUGUGGCUAAUAAUUCUCUCCGCGUCCCCAGACGACUCGCCCGA
modifications: 2'-F pyrimidines
B14: 71N (ssRNA)
RNA: GGGAGGACGAUGCGGAAACGGCGUGGCAAAAGUGAGGGGGUAGGAUGUACCAUGGGUCAGACGACUCGCCCGA
modifications: 2'-NH2 pyrimidines
B15: 9F (ssRNA)
RNA: GGGAGGACGAUGCGGAUAAUGGCUAGAACUAGCUCGCAUCUUGGUGUCCGGUGCCCAGACGACUCGCCCGA
modifications: 2'-F pyrimidines
B16: 24F (ssRNA)
RNA: GGGAGGACGAUGCGGUGGUCUCCCUAGAUCUACAGCACUUCCAUCGCAUUGGGCCAGACGACUCGCCCGA
modifications: 2'-F pyrimidines
B17: 16N (ssRNA)
RNA: GGGAGGACGAUGCGGAAGUUCUAACAAGUUAGUGGAAGGUUCCACUUGAAUGUACAGACGACUCGCCCGA
modifications: 2'-NH2 pyrimidines
B18: 57F (ssRNA)
RNA: GGGAGGACGAUGCGGUGACUAUCUGGCUCGAUCCAAUCACCCGAGCCCACCGCGCCAGACGACUCGCCCGA
modifications: 2'-F pyrimidines
B19: 55F (ssRNA)
RNA: GGGAGGACGAUGCGGUCCGUCAUAACGGCCAUAAACUGCGAAUACUCCCUGGCCCAGACGACUCGCCCGA
modifications: 2'-F pyrimidines
B20: 36N (ssRNA)
RNA: GGGAGGACGAUGCGGGAAGGGAACAGGAUAAGACAAGUCGAACAAAGCCGAGGUGCAGACGACUCGCCCGA
modifications: 2'-NH2 pyrimidines
B21: 8F (ssRNA)
RNA: GGGAGGACGAUGCGGUUUCGAAUAGGGCCAUUUCUCACUAGCUAUCCUACCCUGCCCAGACGACUCGCCCGA
modifications: 2'-F pyrimidines
B22: 48N (ssRNA)
RNA: GGGAGGACGAUGCGGGGCAAAGGAAGUUGGAAUCGGGACUAAGUAGUGUGUGGCCAGACGACUCGCCCGA
modifications: 2'-NH2 pyrimidines
B23: 7F (ssRNA)
RNA: GGGAGGACGAUGCGGCGGGUACUCUUCGCCAGCUCCUCCAAGCGCGACCUGUGCCCAGACGACUCGCCCGA
modifications: 2'-F pyrimidines
B24: 55N (ssRNA)
RNA: GGGAGGACGAUGCGGACACACAAGUGAAGGUCAGACGCGAAUUACGUGGGUGGGCAGACGACUCGCCCGA
modifications: 2'-NH2 pyrimidines
B25: 47N (ssRNA)
RNA: GGGAGGACGAUGCGGGAAGGGUAGGAAGGUCAAGAGGAAACAGCGCUUCGGGGUGCAGACGACUCGCCCGA
modifications: 2'-NH2 pyrimidines
B26: 2F (ssRNA)
RNA: GGGAGGACGAUGCGGGCAUUCGUCAAUACCUUGUUUUAUUCCUUUUCUAGCGGCCCAGACGACUCGCCCGA
modifications: 2'-F pyrimidines
B27: 69N (ssRNA)
RNA: GGGAGGACGAUGCGGGUAGGGAGUAGGACAGACAUAACAGUGCAACCAUCGUGGCCAGACGACUCGCCCGA
modifications: 2'-NH2 pyrimidines
B28: 22F (ssRNA)
RNA: GGGAGGACGAUGCGGCCUGAAGUACAGGCUCUAAACUCCAAGCGCGACCGUCCGCCAGACGACUCGCCCGA
modifications: 2'-F pyrimidines
B29: 53F (ssRNA)
RNA: GGGAGGACGAUGCGGAUCAAAAGCACUCAUUCCCGUGCUCGCUUCAUUGGUCCCCCAGACGACUCGCCCGA
modifications: 2'-F pyrimidines
B30: 34N (ssRNA)
RNA: GGGAGGACGAUGCGGGCGGGAAGAGCUAAUGGAAGUGGAAUCAGUCACAGUGCGGCAGACGACUCGCCCGA
modifications: 2'-NH2 pyrimidines
B31: 60N (ssRNA)
RNA: GGGAGGACGAUGCGGCCCCUUAGCUCAGUGGUUAGAGCAGACGACUCGCCCGA
modifications: 2'-NH2 pyrimidines
B32: 60F (ssRNA)
RNA: GGGAGGACGAUGCGGUGACAUGGAAUUUUCUACGGGCCCGAUCCUGCCAGCCGUGUGCAGACGACUCGCCCGA
modifications: 2'-F pyrimidines
B33: 54N (ssRNA)
RNA: GGGAGGACGAUGCGGAGAACCAACAGAGCCCCCUGGUGGUGGGGGAAGGAUUCUCAGACGACUCGCCCGA
modifications: 2'-NH2 pyrimidines

What follows are binders tested against T1, KGF (hKGF) (assay: filter; DPBS, 37 C). Settings: tags: Upstate Biotechnology; label: 32P.

First: B1
Second: B2
The Kd of the first is 2.3-fold lower: 1.1 nM for the first, 2.52 nM for the second. The first binds more tightly here.

B3 and B4 are within 1.5-fold of each other in Kd: 2.54 nM for the first, 2.52 nM for the second.

First: B5
Second: B6
The Kd of the first is 2.9-fold lower: 1.28 nM for the first, 3.74 nM for the second. The first binds more tightly here.

First: B7
Second: B8
The Kd of the first is 3.3-fold lower: 2.32 nM for the first, 7.67 nM for the second.

Compared with B9, B10 is 5.1-fold higher in Kd: 0.87 nM for the first, 4.47 nM for the second. The first binds more tightly here.

First: B11
Second: B12
The Kd of the first is 2.2-fold higher: 2.53 nM for the first, 1.16 nM for the second.

First: B13
Second: B14
The Kd of the first is 2.9-fold lower: 1.23 nM for the first, 3.52 nM for the second. The first binds more tightly here.

First: B15
Second: B16
The Kd of the first is 2.4-fold lower: 0.83 nM for the first, 2.02 nM for the second.

B17 and B18 are within 1.5-fold of each other in Kd: 1.4 nM for the first, 1.2 nM for the second.

First: B19
Second: B20
The Kd of the first is 3.3-fold lower: 2.52 nM for the first, 8.27 nM for the second.

Compared with B21, B22 is 2-fold lower in Kd: 2.63 nM for the first, 1.34 nM for the second.

First: B23
Second: B24
The Kd of the first is 3-fold higher: 3.69 nM for the first, 1.25 nM for the second.

B25 and B26 are within 1.5-fold of each other in Kd: 1.76 nM for the first, 1.77 nM for the second.

Compared with B27, GGGAGGACGAUGCGGAUGGAGCUGAAAUCAGACGACUCGCCCGA (ssRNA, 2'-NH2 pyrimidines) [22N] is 2.7-fold lower in Kd: 15.2 nM for the first, 5.7 nM for the second. The second binds more tightly here.

First: B28
Second: B29
The Kd of the first is 3.9-fold higher: 2.75 nM for the first, 0.7 nM for the second. The second binds more tightly here.

First: B30
Second: B31
The Kd of the first is 9.2-fold lower: 0.8 nM for the first, 7.38 nM for the second.

With B32 the Kd was 2.1 nM.

Same assay, conditions: tags: Upstate Biotechnology; label: 32P; dumbbell (predicted)

B33 was tested, and the Kd was 5.35 nM.
